Here are results for one molecule from article PMC3796546.

The target in the test is T1, Smt3 (SUMO), endogenous, Q12306.
T1 chain: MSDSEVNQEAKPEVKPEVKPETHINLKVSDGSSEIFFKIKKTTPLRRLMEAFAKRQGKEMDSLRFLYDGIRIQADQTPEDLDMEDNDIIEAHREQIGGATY
Nature of the test: co-IP with mass spectrometry. The following applies: chain shown with the change, cross-linked in vivo with formaldehyde, p value 0.04637.

A value given as a limit tells only on which side of the number the result lay.

B1: N-terminal 3xHA-tagged wild-type Irc20, Q06554 C1239A (protein)
chain: MSAVGALLAREYNVTAEKCDFFLENGSFDSVIAALPALNQEQETVTQKVSKNGKELINVASVNIEIPERISLSNNGRQLFKFIVDIEILPCENDNEATLVVSSDSVSLFQIGFKMENNSKIAVDKQLPLILDICAHKNQERALRNQLENRKSLERKPSRKRRKKNSNVNDPEKLLKSRIHELSLSYKDFECSPVVFRYNDSSLTWVLSFNLKLKFLNNKFNRFSVEANQILDLTFSNRDENEFERYHKHSHIHSNFIQKQFISQILEYSKDRLSKIKPFLPQSIPDLKVNLLPFQRESVEWMLIKEGHGNSLSDTPTVIDEVGLIDFMNEYYAYGYELIARSPDEVGPSLLWNKLTGYILTTEDAAHLYNQYRKERLSGDYPVCAKGVLAEEMGLGKTIEILSLILLNRRKLKDSEATFIDDENRTITKTKTTLIICPNAILKQWLEEIELHANSLKWYTYRGYNEIMKDCKTVDEAVQQLCQYDIIVTSYNIIATEVHHAEFNRSIRSRRLKSPKYDYSSPLALMQFYRIILDEVQMLRSSSTYSAKCTSLLHRIHTWGVSGTPIQNIYNFRMIMSYLKLHPFCDEVDFIRTLQEEIKLRNEAKDYTSNDFVCQLKGVRFSIKDCMNIFYRYDLCIRHSKANVASQIHIPRQHNFIIPLEFAPIEWDNYLNLWNNFLELSGYNSDGSGSPRVSNAFLNEWLSRLRYICCHALFPEILSTRQKRLHGHLSRISNIDDILISMRMDAFDSLIGYYRERFHLSIKQAQYELEISNTPAKALESFIKIRDDLMIHIRQKFNVEDPFDKSLNLSEDEDEHMDERFGEKETSSGDESDREINGAKNHDNHNNDGMLSNHLKKKGLRAMMNLLHDCYFFLGSVYYNLGTRKLEEADDKHRKEKTEEVVYSDVFPKNELEEIEENRLLEQENYANAEILRKSILSSEARKVDMTIKMARTKFAPMTSNIPLRLINIEFDHKNDYSSNLAVSRCFKSLSKLIEGLNEQTKNFNELLDELLIIIYEPVHRTEDDDSTNKIIGNEEYSTSIDSQDKIFSLLGCLEIILQNRDNILTSESEVKIPKHLVPEGSIISKYQKQLLNSLRLISGTPLRTVFDELKNSRIVRRISSSNESESTIQNFEDYLLQYEVESKSLFKYNKQVRESLKILGSIYNAKTEYYSQLQRISDSLVSLHSLSAPQLSHLIRTINKSLGGTLDAKINNIESRLIYLKNLSRLKDTLNDNQILSASICLGEVEIGAIIKCGHYFCKSCILTWLRAHSKCPICKGFCSISEVYNFKFKNSTEKREKEIQEPRREGADSSQDNSNENSIISNMSEVEKLFGNKYEQFHQINEVHQIHIKESFGAKIDFVIKLISYLRLKSEQENADPPQVILYSQKTEYLKVIGKVLKLYHIEHLACLSNTANVGETINNFKRQPSVTCLLLNVKTLGAGLNLINAKHIFLLDPILNNSDELQAMGRNNRIGQDEETFVWNFMIRNTVEENILRYKCILEERKRKEKSKKGDKYDEAQDETDNEESDDAKFEISVVDQEVSNEHLWNCFFHGSD
For the molecule B1, the ratio to parent was greater than 11. Also, where the note is “parent: 0”, the other: sum worked out at 11.
